T1: hTie2 Ig3-Fn3 D682C/N691C (constitutive Tie2 dimer) (human, UniProt Q02763 349-738, Covalent homodimer: two copies of this chain joined by two intermolecular disulfide bonds between the introduced cysteines (C682 of one chain with C691 of the other); one copy is given.)
T1 construct: The positions count on full-length human Tie2; the Ig3-Fn3 entry is used; also called Tie2 dimeric mutant; hTie2 Ig3-Fn3 N691C/D682C
T1 chain: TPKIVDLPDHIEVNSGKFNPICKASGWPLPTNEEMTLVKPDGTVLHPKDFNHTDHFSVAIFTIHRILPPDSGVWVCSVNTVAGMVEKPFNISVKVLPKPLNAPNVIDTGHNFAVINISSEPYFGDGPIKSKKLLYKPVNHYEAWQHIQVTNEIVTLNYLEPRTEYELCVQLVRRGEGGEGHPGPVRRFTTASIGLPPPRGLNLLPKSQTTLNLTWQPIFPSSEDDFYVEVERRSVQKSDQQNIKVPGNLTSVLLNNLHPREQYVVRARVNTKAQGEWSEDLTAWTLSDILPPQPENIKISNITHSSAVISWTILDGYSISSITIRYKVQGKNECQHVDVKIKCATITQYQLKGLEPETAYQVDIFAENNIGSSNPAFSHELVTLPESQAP

B1: 3H7H12G4 (previously reported humanized antibody 3H7) (antibody, V domains shown)
VH: QVQLVQSGAEVKKPGASVKVSCKASGYTFTSYWMNWVRQAPGQGLEWMGMIHPSDSETRLNQKFMDRVTMTRDTSTSTVYMELSSLRSEDTAVYYCARGLYGNSWGQGTLVTVSS
VL: DIQMTQSPSSLSASVGDRVTITCRASQDIGISLNWLQQEPGKAPKRLIYATSSLDSGVPKRFSGSGSGTEFTLTISSLQPEDFATYYCLQYASSPYTFGQGTKVEIK
B2: Human Tie2 ECD (residues 23-735 of human Tie2) (receptor, UniProt Q02763 23-735, looked up)
chain: AMDLILINSLPLVSDAETSLTCIASGWRPHEPITIGRDFEALMNQHQDPLEVTQDVTREWAKKVVWKREKASKINGAYFCEGRVRGEAIRIRTMKMRQQASFLPATLTMTVDKGDNVNISFKKVLIKEEDAVIYKNGSFIHSVPRHEVPDILEVHLPHAQPQDAGVYSARYIGGNLFTSAFTRLIVRRCEAQKWGPECNHLCTACMNNGVCHEDTGECICPPGFMGRTCEKACELHTFGRTCKERCSGQEGCKSYVFCLPDPYGCSCATGWKGLQCNEACHPGFYGPDCKLRCSCNNGEMCDRFQGCLCSPGWQGLQCEREGIQRMTPKIVDLPDHIEVNSGKFNPICKASGWPLPTNEEMTLVKPDGTVLHPKDFNHTDHFSVAIFTIHRILPPDSGVWVCSVNTVAGMVEKPFNISVKVLPKPLNAPNVIDTGHNFAVINISSEPYFGDGPIKSKKLLYKPVNHYEAWQHIQVTNEIVTLNYLEPRTEYELCVQLVRRGEGGEGHPGPVRRFTTASIGLPPPRGLNLLPKSQTTLNLTWQPIFPSSEDDFYVEVERRSVQKSDQQNIKVPGNLTSVLLNNLHPREQYVVRARVNTKAQGEWSEDLTAWTLSDILPPQPENIKISNITHSSAVISWTILDGYSISSITIRYKVQGKNEDQHVDVKIKNATITQYQLKGLEPETAYQVDIFAENNIGSSNPAFSHELVTLPES
notes: range 23-735; also called hTie2 ECD; hTie2
B3: hTAAB, hTie2-activating mouse monoclonal antibody (mouse IgG1) (antibody, V domains shown)
VH: QVQLQQPGAELVRPGASVKLSCKASGYSFTSYWMNWVKQRPGQGLEWIGMIHPSDSETRLNQKFMDKATLTVDKSSSTAYMQLSSPTSEDSAVYYCARGLYGNSWGQGTLVTVSA
VL: DIQMTQSPSSLSASLGERVSLTCRASQDIGISLNWLQQEPDGTIKRLIYATSSLDSGVPKRFSGSRSGSDYSLTISSLESEDFVDYYCLQYASSPYTFGGGTKLEIK
notes: Mouse IgG1 from hybridoma; Only the variable regions are tied to the whole antibody; also called mouse hTAAB; parental hTAAB

Tests used:
[1] = biological target: B2; experiment: SPR (Biacore), hTie2 ECD immobilised on the chip (y axis 'RU (Tie2 ECD)'), antibody as analyte at 128, 256, 512, 1024 and 2048 nM, 1:1 binding model [panel i]
[2] = biological target: the molecule itself; experiment: SEC-MALS (self-association)
[3] = biological target: T1, hTie2 Ig3-Fn3 D682C/N691C (constitutive …); experiment: size-exclusion chromatography and negative-stain EM of the complex
Excerpt: The two residues D682 and N691 involved in the homotypic Fn3-Fn3′ interaction were mutated to cysteines (D682C and N691C) to introduce a disulfide bond (FIGS. 6d and e). […] After removal of aggregates by SEC, the structural arrangement of the resulting complex (peak of the shoulder) was examined using negative-stain electron microscopy (EM) (FIGS. 6f and 7).

[4] = biological target: B2; experiment: SPR (Biacore T200), hTie2 ECD amine-coupled on CM5, antibody as analyte, 1:1 model
Procedure: HEPES-buffered saline (0.01 M HEPES and 0.15 M NaCl) containing 3 mM EDTA (ethylenediaminetetraacetic acid) and 0.05% (v/v) P20 detergent (HBS-EP+) was used as reaction and running buffer (BR100669, GE Healthcare). Human Tie2 ECD (produced in-house; residues 23-735 of human Tie2, GenBank accession number: AAH35514.2) was immobilized on the surface of a CM5 sensor chip by amine coupling using 10 mM acetate at a pH of 5.5. […] Analytes bound to the sensor chips were dissociated by washing with HBS-EP+running buffer for 300 seconds. Both association (Kₒₙ, M⁻¹s⁻¹) and dissociation (Koff, s⁻¹) constants were measured at 300-second intervals. The equilibrium dissociation constant (KD, M) was calculated as the ratio of off-rate to on-rate (Koff/kₒₙ). Kinetic parameters were determined with the global fitting function of Biacore Insight Evaluation Software using a 1:1-binding model.
After purification, binding kinetics of the obtained antibodies to hTie2 ECD were evaluated using SPR.

Binder: B1
Kd [1]: 1100 nM | koff [1]: 0.003 s⁻¹ | kon [1]: 2800 M⁻¹ s⁻¹

Binder: B2
binding result [2]: no binding (tested: 1 mg/ml)

Binder: B3
binding result [3]: binds | Kd [4]: 4.2 nM | koff [4]: 0.0006 s⁻¹ | kon [4]: 140000 M⁻¹ s⁻¹

Reference: patent publication US20240254240A1 (INSTITUTE FOR BASIC SCIENCE, published 2024)
